This note sets out measurements from paper PMC3616705 (Nucleic Acids Research, 2013).

In data set [1] the target is Los1p·Gsp1p export complex (GST-Los1p together with GST-Gsp1p on glutathione resin) (yeast, UniProt P33418 1-1100; P32835 1-219). Briefly: pull-down.
The data set “AUC” concerns the molecule itself. The data set can be described thus: AUC.

B1: Cex1p9-358 (N-terminal kinase-like domain of Cex1p), N-terminal His tag (domain or fragment, Saccharomyces cerevisiae, UniProt Q12453 9-358, looked up)
chain: SISNFQFPYTIEETAITETALWQCFDGTRKADSLPVTVFKAKRSPENESLILNAVHKSKILKIPGLCTVLETFDSDPQSTFIVTERVVPFPWDNLGSLSQNKFGVELGISQLLATLGFLKNFVLGTLSKDSVFINIKGEWVLFGLELCSSKEGLSAFEFASRARSYYNIIGSQLPCEDPNTIDSMGLGLLIKSLMAPSCLPKDWIVNVNMISDGKITIENFRKRLENTETWRSNPLINFYQELRELHIKDPQGKLVVMSNLENLYLESREIFRNLTPGMIENFIIPELCEIIKLLMTQSISSAASPIGMNFNASHKLVPFLAIVLDLTSETNTFPVGFNDLITQSFKLPD
Usually stoichiometry N stands for a count of units in the complex or per binding partner. Turning to B1, the binding result in data set [1] is “binds”. The “stoichiometry N” value in the data set “AUC” was found to be 2.

B2: Cex1pΔC-SER (residues 9-564, E535A/K536A/E537A) with N-terminal His tag, as used in the pull-down (domain or fragment, Saccharomyces cerevisiae, UniProt Q12453 9-564, looked up)
chain: SISNFQFPYTIEETAITETALWQCFDGTRKADSLPVTVFKAKRSPENESLILNAVHKSKILKIPGLCTVLETFDSDPQSTFIVTERVVPFPWDNLGSLSQNKFGVELGISQLLATLGFLKNFVLGTLSKDSVFINIKGEWVLFGLELCSSKEGLSAFEFASRARSYYNIIGSQLPCEDPNTIDSMGLGLLIKSLMAPSCLPKDWIVNVNMISDGKITIENFRKRLENTETWRSNPLINFYQELRELHIKDPQGKLVVMSNLENLYLESREIFRNLTPGMIENFIIPELCEIIKLLMTQSISSAASPIGMNFNASHKLVPFLAIVLDLTSETNTFPVGFNDLITQSFKLPDRQVRFLLLIYLPKLIGPLSKSEISSRIYPHFIQGLTDSDATLRLQTLKTIPCIVSCLTERQLNNELLRFLAKTQVDSDVEIRTWTVIIISKISTILSTSVGNRSNILATAFTKSLKDPQVKPRLAALYGLEKSIELFDVNTIANKILTVIAPGLLDKSPIVRGRAKILFEEYLEKLAAAAQLIQTNDSTADSEDVKDIDFENYGCD
As for B2, the binding result in data set [1] is “binds”.

B3: Cex1pΔC-SER (residues 9-564, E535A/K536A/E537A), His tag removed (domain or fragment, Saccharomyces cerevisiae, UniProt Q12453 9-564, looked up)
chain: SISNFQFPYTIEETAITETALWQCFDGTRKADSLPVTVFKAKRSPENESLILNAVHKSKILKIPGLCTVLETFDSDPQSTFIVTERVVPFPWDNLGSLSQNKFGVELGISQLLATLGFLKNFVLGTLSKDSVFINIKGEWVLFGLELCSSKEGLSAFEFASRARSYYNIIGSQLPCEDPNTIDSMGLGLLIKSLMAPSCLPKDWIVNVNMISDGKITIENFRKRLENTETWRSNPLINFYQELRELHIKDPQGKLVVMSNLENLYLESREIFRNLTPGMIENFIIPELCEIIKLLMTQSISSAASPIGMNFNASHKLVPFLAIVLDLTSETNTFPVGFNDLITQSFKLPDRQVRFLLLIYLPKLIGPLSKSEISSRIYPHFIQGLTDSDATLRLQTLKTIPCIVSCLTERQLNNELLRFLAKTQVDSDVEIRTWTVIIISKISTILSTSVGNRSNILATAFTKSLKDPQVKPRLAALYGLEKSIELFDVNTIANKILTVIAPGLLDKSPIVRGRAKILFEEYLEKLAAAAQLIQTNDSTADSEDVKDIDFENYGCD
Regarding B3, the “stoichiometry N” value in “AUC” worked out at 2.

B4: wild-type, full-length Cex1p (cytoplasmic export protein), N-terminal His tag (natural protein, Saccharomyces cerevisiae, UniProt Q12453 1-761, looked up)
chain: MNFSSIFKSISNFQFPYTIEETAITETALWQCFDGTRKADSLPVTVFKAKRSPENESLILNAVHKSKILKIPGLCTVLETFDSDPQSTFIVTERVVPFPWDNLGSLSQNKFGVELGISQLLATLGFLKNFVLGTLSKDSVFINIKGEWVLFGLELCSSKEGLSAFEFASRARSYYNIIGSQLPCEDPNTIDSMGLGLLIKSLMAPSCLPKDWIVNVNMISDGKITIENFRKRLENTETWRSNPLINFYQELRELHIKDPQGKLVVMSNLENLYLESREIFRNLTPGMIENFIIPELCEIIKLLMTQSISSAASPIGMNFNASHKLVPFLAIVLDLTSETNTFPVGFNDLITQSFKLPDRQVRFLLLIYLPKLIGPLSKSEISSRIYPHFIQGLTDSDATLRLQTLKTIPCIVSCLTERQLNNELLRFLAKTQVDSDVEIRTWTVIIISKISTILSTSVGNRSNILATAFTKSLKDPQVKPRLAALYGLEKSIELFDVNTIANKILTVIAPGLLDKSPIVRGRAKILFEEYLEKLEKEAQLIQTNDSTADSEDVKDIDFENYGCDEEDMNKEDNLLAAQFLNNLRLNSPSATTPSNITESEIDSAQDGSGWDDLSDTDGFITNGTTESFDETTNPVTTASTPKLFGKPIKINKSWNDELNDDGWIQDESGPSKVPQKHTRPQNSTLAKSIAPSSRLSIKKKKTTILAPRNIASNSTVTTKSSLSNKTARSKPISSIRGSVTKKGNVDGWDDDGDSDSWDTNW
B4: in data set [1], the binding result is “binds”. The “stoichiometry N” value in “AUC” worked out at 2.
